In one experiment the target is BSA (UniProt P02769). Nature of the experiment: single-point ELISA. Background: An ELISA detects its analyte on a solid surface through an enzyme-linked reagent.
Experiment [1] addresses HIV-1 envelope glycoprotein (gp120) of virus 92US727 (HIV-1). Briefly: cell-based or functional assay.
The target in experiment [2] is HIV-1 envelope glycoprotein (gp120) of virus 7141 (HIV-1). Nature of the experiment: cell-based or functional assay.
Experiment [3] deals with HIV-1 envelope glycoprotein (gp120) of virus VS001 (HIV-1). Briefly: cell-based or functional assay.

Where only a bound is given, the exact number is not on record here.

B1: 1.35.35-1 (antibody, human IgG1, kappa, V domains shown)
VH: QVQLVQSGAEVKKPGASVRVSCKASGYNIRDYFMHWWRQAPGQGLQWVGWINPKTGQPNNPRQFQGRVTMTRHASWDFDTFSFYMDLSRLRSDDTATYFCARQRTDYWDFDVWGQGTMVTVSS
VL: DIQMTQSPSSLSASVGDRVTITCQANGYLNWYQQKPGKAPKLLIYDGSNLETGVPSRFSGSRWGQEYTLTISSLQPEDIATYFCQVYEFVGPGTNLDIKR
The molecule B1 came in with an ELISA (A450) with BSA of 0.06 A450.

B2: 1.36.35-1 (antibody, human IgG1, kappa, V domains shown)
VH: QVQLVQSGAEVKKPGASVRVSCKASGYNIRDYFMHWWRQAPGQGLQWVGWINPKTGQPNNPRQFQGRVTMTRHASWDFDTFSAYMDLSRLRSDDTATYFCARQRTDYWDFDVWGQGTMVTVSS
VL: DIQMTQSPSSLSASVGDRVTITCQANGYLNWYQQKPGKAPKLLIYDGSNLETGVPSRFSGSRWGQEYTLTISSLQPEDIATYFCQVYEFVGPGTNLDIKR
In turn, B2 returned an ELISA (A450) with BSA of 0.06 A450.

B3: 2.3.7-1 (antibody, human IgG1, kappa, V domains shown)
VH: QVHLSQSGAAVTKPGASVRVSCEASGYNIRDYFIHWWRQAPGQGLQWVGWINPKTGQPNNPRQFQGRVSLTRHASWDFDTFSFYMDLKAVRSDDTAIYFCARQRSDYWDFDVWGSGTQVTVSS
VL: DIQMTQSPSSLSARVGDRATITCQANGYLNWYQQRRGKAPKLLIYDGSKLERGVPARFSGSRWGQEYTLTISSLQPEDVATYFCQVYEFFGPGTRLDLKR
On to B3, for which the Neutralization IC50 is over 50 µg/mL in experiment [1], 5.08 µg/mL in experiment [2] and 0.47 µg/mL in experiment [3].

B4: 2.2.18-1 (antibody, human IgG1, kappa, V domains shown)
VH: QVHLSQSGAAVTKPGASVRVSCEASGYKIRDHFIHWWRQAPGQGLQWVGWINPKTGQPNNPRQFQGRVSLTRHASWDFDTFSFYMDLKAVRSDDTAIYFCARQRSDYWDFDVWGSGTQVTVSS
VL: DIQMTQSPSSLSARVGDRATITCQANGYLNWYQQRRGKAPKLLIYDGSKLERGVPARFSGSRWGQEYHLTISSLQPEDVATYFCQVYEFFGPGTRLDLKR
As for B4, the Neutralization IC50 in experiment [1] was over 34 µg/mL; in experiment [2], 5.04 µg/mL; in experiment [3] it was 2.51 µg/mL.

B5: 3.1.18-1 (antibody, human IgG1, kappa, V domains shown)
VH: QVQLLQSGAAVTKPGASVRVSCEASGYNIRDYFIHWWRQAPGQGLQWVGWINPKTGQPNNPRQFQGRVSLTRHASWDFDTFSFYMDLKALRSDDTAVYFCARQRSDYWDFDVWGSGTQVTVSS
VL: DIQMTQSPSSLSARVGDRATITCQANGYLNWYQQRRGKAPKLLIYDGSKLERGVPARFSGSRWGQEYHLTISSLQPEDVATYFCQVYEFFGPGTRLDLKR
Take B5: the Neutralization IC50 in experiment [1] was over 9.8 µg/mL; in experiment [2], over 9.8 µg/mL; in experiment [3], 3.52 µg/mL.

B6: 1.1.35-1 (antibody, human IgG1, kappa, V domains shown)
VH: QVQLLQSGAAVTKPGASVRVSCEASGYNIRDYFIHWWRQAPGQGLQWVGWINPKTGQPNNPRQFQGRVSLTRHASWDFDTFSFYMDLKALRSDDTAVYFCARQRSDYWDFDVWGSGTQVTVSS
VL: DIQMTQSPSSLSASVGDRVTITCQANGYLNWYQQKPGKAPKLLIYDGSNLETGVPSRFSGSRWGQEYTLTISSLQPEDIATYFCQVYEFVGPGTNLDIKR
The molecule B6 registered an ELISA (A450) with BSA of 0.08 A450.

B7: 1.1.102-1 (antibody, human IgG1, kappa, V domains shown)
VH: QVQLLQSGAAVTKPGASVRVSCEASGYNIRDYFIHWWRQAPGQGLQWVGWINPKTGQPNNPRQFQGRVSLTRHASWDFDTFSFYMDLKALRSDDTAVYFCARQRSDYWDFDVWGSGTQVTVSS
VL: DIQMTQSPSSLSASVGDRATITCQANGYLNWYQQRRGKAPKLLIYDGSKLERGVPSRFSGSRWGQEYHLTISSLQPEDIATYFCQVYEFFGPGTRLDLKR
As for B7, the Neutralization IC50 in experiment [1] is over 50 µg/mL; in experiment [2] it was 22.7 µg/mL; in experiment [3], 3 µg/mL.

B8: 1.32.35-1 (antibody, human IgG1, kappa, V domains shown)
VH: QVQLVQSGAEVTKPGASVRVSCEASGYNIRDYFIHWWRQAPGQGLQWVGWINPKTGQPNNPRQFQGRVSLTRHASWDFDTFSFYMDLKALRSDDTAVYFCARQRTDYWDFDVWGSGTQVTVSS
VL: DIQMTQSPSSLSASVGDRVTITCQANGYLNWYQQKPGKAPKLLIYDGSNLETGVPSRFSGSRWGQEYTLTISSLQPEDIATYFCQVYEFVGPGTNLDIKR
Take B8: the ELISA (A450) in the experiment with BSA was 0.06 A450.

B9: 1.1.78-1 (antibody, human IgG1, kappa, V domains shown)
VH: QVQLLQSGAAVTKPGASVRVSCEASGYNIRDYFIHWWRQAPGQGLQWVGWINPKTGQPNNPRQFQGRVSLTRHASWDFDTFSFYMDLKALRSDDTAVYFCARQRSDYWDFDVWGSGTQVTVSS
VL: DIQMTQSPSSLSASVGDTATITCQANGYLNWYQQRRGKAPKLLIYDGSKLERGVPSRFSGRRWGQEYHLTINNLQPEDIATYFCQVYEFFGPGTRLDLKR
Turning to B9, the figures for the Neutralization IC50 in experiment [1], in experiment [2] and in experiment [3] were over 50 µg/mL, 29.5 µg/mL and 3.3 µg/mL, respectively.

B10: 1.31.35-1 (antibody, human IgG1, kappa, V domains shown)
VH: QVQLVQSGAEVTKPGASVRVSCEASGYNIRDYFIHWWRQAPGQGLQWVGWINPKTGQPNNPRQFQGRVSLTRHASWDFDTFSFYMDLKALRSDDTATYFCARQRSDYWDFDVWGSGTQVTVSS
VL: DIQMTQSPSSLSASVGDRVTITCQANGYLNWYQQKPGKAPKLLIYDGSNLETGVPSRFSGSRWGQEYTLTISSLQPEDIATYFCQVYEFVGPGTNLDIKR
In the experiment with BSA, B10 returned an ELISA (A450) of 0.06 A450.

B11: 3.1.17-1 (antibody, human IgG1, kappa, V domains shown)
VH: QVQLLQSGAAVTKPGASVRVSCEASGYNIRDYFIHWWRQAPGQGLQWVGWINPKTGQPNNPRQFQGRVSLTRHASWDFDTFSFYMDLKALRSDDTAVYFCARQRSDYWDFDVWGSGTQVTVSS
VL: DIQMTQSPSSLSARVGDTATITCQANGYLNWYQQRRGKAPKLLIYDGSKLERGVPARFSGRRWGQEYHLTINNLQPEDVATYFCQVYEFFGPGTRLDLKR
For B11, the values for the Neutralization IC50 in experiment [1], in experiment [2] and in experiment [3] were over 50 µg/mL, 25.5 µg/mL and 2.21 µg/mL, respectively.

B12: 1.34.35-1 (antibody, human IgG1, kappa, V domains shown)
VH: QVQLVQSGAEVKKPGASVRVSCKASGYNIRDYFIHWWRQAPGQGLQWVGWINPKTGQPNNPRQFQGRVTLTRHASWDFDTFSFYMDLKALRSDDTAVYFCARQRTDYWDFDVWGSGTQVTVSS
VL: DIQMTQSPSSLSASVGDRVTITCQANGYLNWYQQKPGKAPKLLIYDGSNLETGVPSRFSGSRWGQEYTLTISSLQPEDIATYFCQVYEFVGPGTNLDIKR
In the experiment with BSA, B12 registered an ELISA (A450) of 0.06 A450.

B13: 2.2.17-1 (antibody, human IgG1, kappa, V domains shown)
VH: QVHLSQSGAAVTKPGASVRVSCEASGYKIRDHFIHWWRQAPGQGLQWVGWINPKTGQPNNPRQFQGRVSLTRHASWDFDTFSFYMDLKAVRSDDTAIYFCARQRSDYWDFDVWGSGTQVTVSS
VL: DIQMTQSPSSLSARVGDTATITCQANGYLNWYQQRRGKAPKLLIYDGSKLERGVPARFSGRRWGQEYHLTINNLQPEDVATYFCQVYEFFGPGTRLDLKR
With B13, the results for the Neutralization IC50 in experiment [1], in experiment [2] and in experiment [3] were over 50 µg/mL, 6.28 µg/mL and 4.38 µg/mL, respectively.

B14: 1.13.17-1 (antibody, human IgG1, kappa, V domains shown)
VH: QVQLLQSGAAVTKPGASVRVSCEASGYNIRDYFMHWVRQAPGQGLQWVGWINPKTGQPNNPRQFQGRVSLTRHASWDFDTFSFYMDLKALRSDDTAVYFCARQRSDYWDFDVWGSGTQVTVSS
VL: DIQMTQSPSSLSASVGDTVTITCQANGYLNWYQQRRGKAPKLLIYDGSKLERGVPSRFSGRRWGQEYNLTINNLQPEDIATYFCQVYEFFGPGTRLDLKR
Consider B14, for which, in the experiment with BSA, the ELISA (A450) worked out at 0.06 A450.

B15: 2.3.18-1 (antibody, human IgG1, kappa, V domains shown)
VH: QVHLSQSGAAVTKPGASVRVSCEASGYNIRDYFIHWWRQAPGQGLQWVGWINPKTGQPNNPRQFQGRVSLTRHASWDFDTFSFYMDLKAVRSDDTAIYFCARQRSDYWDFDVWGSGTQVTVSS
VL: DIQMTQSPSSLSARVGDRATITCQANGYLNWYQQRRGKAPKLLIYDGSKLERGVPARFSGSRWGQEYHLTISSLQPEDVATYFCQVYEFFGPGTRLDLKR
Turning to B15, the results for the Neutralization IC50 in experiment [1], in experiment [2] and in experiment [3] were over 23 µg/mL, over 23 µg/mL and 2.37 µg/mL, respectively.

B16: 1.14.17-1 (antibody, human IgG1, kappa, V domains shown)
VH: QVQLLQSGAAVTKPGASVRVSCEASGYNIRDYFMHWVRQAPGQGLQWVGWINPKTGQPNNPRQFQGRVSLTRHASWDFDTFSAYMDLKALRSDDTAVYFCARQRSDYWDFDVWGSGTQVTVSS
VL: DIQMTQSPSSLSASVGDTVTITCQANGYLNWYQQRRGKAPKLLIYDGSKLERGVPSRFSGRRWGQEYNLTINNLQPEDIATYFCQVYEFFGPGTRLDLKR
As to B16, the ELISA (A450) with BSA stood at 0.1 A450.

B17: 1.33.35-1 (antibody, human IgG1, kappa, V domains shown)
VH: QVQLVQSGAEVKKPGASVRVSCKASGYNIRDYFIHWWRQAPGQGLQWVGWINPKTGQPNNPRQFQGRVTLTRHASWDFDTFSFYMDLKALRSDDTATYFCARQRSDYWDFDVWGSGTQVTVSS
VL: DIQMTQSPSSLSASVGDRVTITCQANGYLNWYQQKPGKAPKLLIYDGSNLETGVPSRFSGSRWGQEYTLTISSLQPEDIATYFCQVYEFVGPGTNLDIKR
As for B17, the ELISA (A450) with BSA was 0.07 A450.

B18: 2.3.17-1 (antibody, human IgG1, kappa, V domains shown)
VH: QVHLSQSGAAVTKPGASVRVSCEASGYNIRDYFIHWWRQAPGQGLQWVGWINPKTGQPNNPRQFQGRVSLTRHASWDFDTFSFYMDLKAVRSDDTAIYFCARQRSDYWDFDVWGSGTQVTVSS
VL: DIQMTQSPSSLSARVGDTATITCQANGYLNWYQQRRGKAPKLLIYDGSKLERGVPARFSGRRWGQEYHLTINNLQPEDVATYFCQVYEFFGPGTRLDLKR
B18: the figures for the Neutralization IC50 in experiment [1], in experiment [2] and in experiment [3] were over 50 µg/mL, 31.3 µg/mL and 4.54 µg/mL, respectively.

B19: 1.12.17-1 (antibody, human IgG1, kappa, V domains shown)
VH: QVQLLQSGAAVTKPGASVRVSCEASGYNIRDYFIHWVRQAPGQGLQWVGWINPKTGQPNNPRQFQGRVSLTRHASWDFDTFSFYMDLKALRSDDTAVYFCARQRSDYWDFDVWGSGTQVTVSS
VL: DIQMTQSPSSLSASVGDTVTITCQANGYLNWYQQRRGKAPKLLIYDGSKLERGVPSRFSGRRWGQEYNLTINNLQPEDIATYFCQVYEFFGPGTRLDLKR
In the experiment with BSA, B19 showed an ELISA (A450) of 0.06 A450.

The record behind these values is patent publication US20220089698A1.
